The record followed here is PMC5435912.

Experiment [1] deals with bovine pancreatic RNase A, biotinylated (bovine) (UniProt P61823). The experiment can be described thus: BLI. For orientation: BLI is a label-free optical method that tracks binding on a fibre tip over time.
Experiment [2] has as its target CdiI^Ykris-His6, immunity protein of Yersinia kristensenii ATCC 33638 (Yersinia kristensenii ATCC 33638). Description: BLI.

Chain of UniProt P61823 (P61823 27-150): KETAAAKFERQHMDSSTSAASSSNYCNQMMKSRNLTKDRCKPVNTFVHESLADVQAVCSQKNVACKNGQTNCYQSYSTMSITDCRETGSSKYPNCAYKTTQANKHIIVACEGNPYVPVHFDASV

The Kd is the free concentration of one partner at which half of the binding sites on the other are occupied at equilibrium, for simple one-to-one binding. A high value points to weaker binding. In the case of “CdiI^Ykris-His6, immunity protein of Yersinia kristensenii ATCC 33638 (natural protein)”, the Kd in experiment [1] came out at 1950 nM. As for “CdiA-CT^Ykris, C-terminal toxin region of CdiA from Yersinia kristensenii ATCC 33638 (domain or fragment)”, in experiment [2], the Kd came out at 40.9 nM.
